Results taken from publication PMC12032115.

Target: PTPRF (UniProt P10586)
Experiment: flow cytometry

PTPRF, sequence (P10586 30-1907): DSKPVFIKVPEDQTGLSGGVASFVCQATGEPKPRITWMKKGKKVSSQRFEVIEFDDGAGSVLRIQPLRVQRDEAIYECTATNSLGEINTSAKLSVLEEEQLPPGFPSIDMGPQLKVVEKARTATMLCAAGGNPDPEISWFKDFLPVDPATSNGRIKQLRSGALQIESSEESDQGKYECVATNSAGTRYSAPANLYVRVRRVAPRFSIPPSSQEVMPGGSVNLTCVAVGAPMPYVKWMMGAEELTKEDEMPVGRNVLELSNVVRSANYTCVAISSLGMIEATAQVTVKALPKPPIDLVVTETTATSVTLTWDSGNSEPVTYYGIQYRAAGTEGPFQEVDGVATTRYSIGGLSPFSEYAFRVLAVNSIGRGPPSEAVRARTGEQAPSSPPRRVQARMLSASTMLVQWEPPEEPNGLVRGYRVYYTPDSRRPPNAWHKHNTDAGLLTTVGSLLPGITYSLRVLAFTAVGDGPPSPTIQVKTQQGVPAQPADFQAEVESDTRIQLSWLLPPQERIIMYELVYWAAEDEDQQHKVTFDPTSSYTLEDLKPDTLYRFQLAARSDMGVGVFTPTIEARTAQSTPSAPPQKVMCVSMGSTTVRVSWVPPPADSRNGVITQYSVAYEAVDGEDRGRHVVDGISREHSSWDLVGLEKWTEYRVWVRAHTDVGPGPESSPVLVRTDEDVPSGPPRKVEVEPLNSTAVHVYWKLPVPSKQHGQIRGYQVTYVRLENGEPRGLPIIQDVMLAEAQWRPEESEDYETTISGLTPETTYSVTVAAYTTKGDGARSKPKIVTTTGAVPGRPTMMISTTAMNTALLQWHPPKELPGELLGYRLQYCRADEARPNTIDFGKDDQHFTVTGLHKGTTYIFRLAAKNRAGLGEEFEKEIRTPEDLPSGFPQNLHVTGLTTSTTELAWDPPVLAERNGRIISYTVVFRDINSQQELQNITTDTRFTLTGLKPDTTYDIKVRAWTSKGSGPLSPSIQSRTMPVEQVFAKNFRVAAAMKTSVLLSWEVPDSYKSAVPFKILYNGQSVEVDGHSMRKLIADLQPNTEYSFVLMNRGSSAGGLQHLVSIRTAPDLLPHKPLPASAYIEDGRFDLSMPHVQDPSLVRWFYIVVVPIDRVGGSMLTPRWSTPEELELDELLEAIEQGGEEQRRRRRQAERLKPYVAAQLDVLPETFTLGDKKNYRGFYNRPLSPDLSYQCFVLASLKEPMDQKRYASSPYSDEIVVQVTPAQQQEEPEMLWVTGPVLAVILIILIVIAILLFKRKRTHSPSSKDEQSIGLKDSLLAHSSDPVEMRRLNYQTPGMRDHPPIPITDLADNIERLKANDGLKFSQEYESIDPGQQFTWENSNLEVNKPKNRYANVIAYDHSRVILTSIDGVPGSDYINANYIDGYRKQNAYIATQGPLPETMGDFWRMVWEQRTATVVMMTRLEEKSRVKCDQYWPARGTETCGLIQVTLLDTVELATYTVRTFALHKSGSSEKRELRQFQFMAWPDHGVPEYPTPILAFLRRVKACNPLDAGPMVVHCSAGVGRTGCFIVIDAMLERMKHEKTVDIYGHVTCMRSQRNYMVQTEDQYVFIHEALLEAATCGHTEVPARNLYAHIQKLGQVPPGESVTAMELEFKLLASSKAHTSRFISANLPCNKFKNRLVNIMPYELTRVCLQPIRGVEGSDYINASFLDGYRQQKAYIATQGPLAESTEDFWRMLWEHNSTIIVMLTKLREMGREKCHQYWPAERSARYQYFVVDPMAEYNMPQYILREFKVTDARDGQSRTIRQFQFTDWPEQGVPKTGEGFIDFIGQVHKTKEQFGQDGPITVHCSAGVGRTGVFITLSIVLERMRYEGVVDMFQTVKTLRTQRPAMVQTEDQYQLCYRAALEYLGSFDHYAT

“TGGAGGATATAGGTTGGCTTAGGTGGCTTTGCGTTGGGTGTGGTGCATATCCTCCA [ZAJ4a]” gave a Kd of 23.3 nM.
